Data on one molecule can be found in patent publication US9149523B2, “Compositions and methods for treating cancer and neurodegenerative diseases” (Yeda Research and Development Co. Ltd., priority 2010, dated 2015).

This experiment has as its system HEK 293T cells. The experiment in a line: Cell detachment assay 24 h after transfection. Type of experiment: cell-based, human. As to conditions: 24 h post-transfection, versus luciferase-transfected control cells, p<0.01 between the two constructs. On the procedure: Cell detachment was assessed as described before (Widau, Jin et al. 2010), by counting the adherent cells left in the tissue culture plate after 24 h of transfection with either DAPk WT or ΔP-Loop. Briefly, cells were washed twice in PBS to remove detached cells. Then, adherent cells were trypsinized and counted with a Countess® Automated Cell Counter (Invitrogen). The extent of cell detachment is defined as (the number of control cells—the number of treated cells)/(the number of control cells), where control cells are HEK 293T cell transected with the irrelevant protein luciferase.
The functional effects of the GTP binding on DAPk's ability to induce some of its canonical phenotypic effects in cell cultures, namely cell rounding and detachment, and membrane blebbing, was assessed. These DAPk associated cellular changes are dependent on DAPk's catalytic activity and have been successfully used in other studies to assess DAPk activity in vivo (Widau, Jin et al. 2010). The necessity of the GTP-binding to the ROC domain for the extent of these effects on HEK 293T cells was examined. This was achieved by comparing DAPk WT to its P-Loop deletant counterpart. FIG. 6A presents a western blot analysis showing even expression levels between the constructs used in the cell detachment assay, ruling out any possibility of false results generated by uneven expression levels. […]

B1: WT protein: tagged human full-length death-associated protein kinase (DAPk), expressed by transfection (protein)
chain: MTVFRQENVDDYYDTGEELGSGQFAVVKKCREKSTGLQYAAKFIKKRRTKSSRRGVSREDIEREVSILKEIQHPNVITLHEVYENKTDVILILELVAGGELFDFLAEKESLTEEEATEFLKQILNGVYYLHSLQIAHFDLKPENIMLLDRNVPKPRIKIIDFGLAHKIDFGNEFKNIFGTPEFVAPEIVNYEPLGLEADMWSIGVITYILLSGASPFLGDTKQETLANVSAVNYEFEDEYFSNTSALAKDFIRRLLVKDPKKRMTIQDSLQHPWIKPKDTQQALSRKASAVNMEKFKKFAARKKWKQSVRLISLCQRLSRSFLSRSNMSVARSDDTLDEEDSFVMKAIIHAINDDNVPGLQHLLGSLSNYDVNQPNKHGTPPLLIAAGCGNIQILQLLIKRGSRIDVQDKGGSNAVYWAARHGHVDTLKFLSENKCPLDVKDKSGEMALHVAARYGHADVAQLLCSFGSNPNIQDKEEETPLHCAAWHGYYSVAKALCEAGCNVNIKNREGETPLLTASARGYHDIVECLAEHGADLNACDKDGHIALHLAVRRCQMEVIKTLLSQGCFVDYQDRHGNTPLHVACKDGNMPIVVALCEANCNLDISNKYGRTPLHLAANNGILDVVRYLCLMGASVEALTTDGKTAEDLARSEQHEHVAGLLARLRKDTHRGLFIQQLRPTQNLQPRIKLKLFGHSGSGKTTLVESLKCGLLRSFFRRRRPRLSSTNSSRFPPSPLASKPTVSVSINNLYPGCENVSVRSRSMMFEPGLTKGMLEVFVAPTHHPHCSADDQSTKAIDIQNAYLNGVGDFSVWEFSGNPVYFCCYDYFAANDPTSIHVVVFSLEEPYEIQLNQVIFWLSFLKSLVPVEEPIAFGGKLKNPLQVVLVATHADIMNVPRPAGGEFGYDKDTSLLKEIRNRFGNDLHISNKLFVLDAGASGSKDMKVLRNHLQEIRSQIVSVCPPMTHLCEKIISTLPSWRKLNGPNQLMSLQQFVYDVQDQLNPLASEEDLRRIAQQLHSTGEINIMQSETVQDVLLLDPRWLCTNVLGKLLSVETPRALHHYRGRYTVEDIQRLVPDSDVEELLQILDAMDICARDLSSGTMVDVPALIKTDNLHRSWADEEDEVMVYGGVRIVPVEHLTPFPCGIFHKVQVNLCRWIHQQSTEGDADIRLWVNGCKLANRGAELLVLLVNHGQGIEVQVRGLETEKIKCCLLLDSVCSTIENVMATTLPGLLTVKHYLSPQQLREHHEPVMIYQPRDFFRAQTLKETSLTNTMGGYKESFSSIMCFGCHDVYSQASLGMDIHASDLNLLTRRKLSRLLDPPDPLGKDWCLLAMNLGLPDLVAKYNTSNGAPKDFLPSPLHALLREWTTYPESTVGTLMSKLRELGRRDAADFLLKASSVFKINLDGNGQEAYASSCNSGTSYNSISSVVSR
modifications: left off: small tags and cut ends
notes: tagged human full-length death-associated protein kinase (DAPk), expressed by transfection
With B1, the cell detachment is 17.4%±7.4%.
